What was measured:
[1] = biological target: T1, BomoC(ed) R2 RT (deltaN274, D996A) (Bombyx mori); test: primer extended across ddA-tailed miRNA pool; full-length cDNA library; Mg2+, 37C; enzyme named as modified R2 RT; conditions: tags: N-terminal MBP, C-terminal 6xHis; partial duplex, +1T 3' overhang
T1 chain: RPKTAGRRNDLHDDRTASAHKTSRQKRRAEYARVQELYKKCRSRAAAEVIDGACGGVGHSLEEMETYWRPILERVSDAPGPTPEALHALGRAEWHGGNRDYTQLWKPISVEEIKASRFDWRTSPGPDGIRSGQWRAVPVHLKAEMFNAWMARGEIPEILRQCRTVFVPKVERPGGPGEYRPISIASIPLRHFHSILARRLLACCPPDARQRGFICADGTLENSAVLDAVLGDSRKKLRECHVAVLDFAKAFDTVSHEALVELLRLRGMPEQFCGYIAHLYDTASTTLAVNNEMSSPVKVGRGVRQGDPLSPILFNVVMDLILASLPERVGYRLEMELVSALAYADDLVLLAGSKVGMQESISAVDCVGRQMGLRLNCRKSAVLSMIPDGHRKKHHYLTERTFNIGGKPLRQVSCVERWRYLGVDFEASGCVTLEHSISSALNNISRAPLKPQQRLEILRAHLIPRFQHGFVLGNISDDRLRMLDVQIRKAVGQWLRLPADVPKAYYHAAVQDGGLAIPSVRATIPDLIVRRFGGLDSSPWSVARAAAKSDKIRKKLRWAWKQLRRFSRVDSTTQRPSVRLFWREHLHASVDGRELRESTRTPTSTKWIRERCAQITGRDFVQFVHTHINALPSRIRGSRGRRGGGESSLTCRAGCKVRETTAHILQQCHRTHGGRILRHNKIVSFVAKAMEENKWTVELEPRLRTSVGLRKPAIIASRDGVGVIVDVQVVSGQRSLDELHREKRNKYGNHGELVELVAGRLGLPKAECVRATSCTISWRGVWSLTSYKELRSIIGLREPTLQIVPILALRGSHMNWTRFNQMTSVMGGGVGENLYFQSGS
Description: (§1) FIG. 15B. Analysis of reaction products by denaturing PAGE and SYBR Gold staining using a template RNA pool of 963 equimolar miRNA sequences (miRXplore). The full-length cDNA library (labeled cDNA+adaptor template) and some cDNA product from copying of the miRNA template only (labeled cDNA) are the predominant products. Excess adaptor primer and adaptor template are also stained. “No enz” is the no enzyme control. Lane+/− indicates addition of RNase A after product denaturation, which removes the non-extended strand of the primer duplex and truncates the ˜70 nt 3′ adaptor template. The library was sequenced with results shown in comparison to a low-cycle-PCR library in FIG. 16B.
(§2) Typical assays for cDNA synthesis by processive use of multiple template molecules (i.e., serial template copying) used a DNA primer that was annealed in full or part to a second strand, usually RNA, to generate a primer 3′ end that was blunt duplex or a short 3′ overhang of defined sequence. Templates included chemically synthesized RNA or DNA oligonucleotides and/or RNAs purified after T7 RNA polymerase transcription; templates were also isolated from biological sources. Reaction conditions were typically 20 mM Tris-HCl pH 7.5, 150 mM KCl, 2 mM MgCl₂, 10% glycerol with incubations at room temperature or 37° C. […]

[2] = biological target: T1, BomoC(ed) R2 RT (deltaN274, D996A); test: used as second (terminal) template in ordered template relay; Mg2+, 37C; conditions: tags: N-terminal MBP, C-terminal 6xHis; partial duplex, 3' C
Description: as §1, §2

[3] = biological target: T1, BomoC(ed) R2 RT (deltaN274, D996A); test: primer for low-PCR cDNA library; Mg2+, 37C; conditions: tags: N-terminal MBP, C-terminal 6xHis; partial duplex

B1: no-PCR adaptor primer partial duplex c5p(FL)/c5pt (DNA:RNA)
DNA: CAAGCAGAAGACGGCATACGAGATGACGAGAGGTGACTGGAGTTCAGACGTGTGCTCTTCCGATCT
RNA: GAUCGGAAGAGCACACGUCUGAACUCCAGU
modifications: 3' C3 spacer on RNA strand
B1: binds [1].

B2: no-PCR adaptor template partial duplex c3t(FL)/c3t_comp (mixed)
DNA: AATGATACGGCGACCACCGAGATCTACACCGCAGACGACACTCTTTCCCTACACGACGCTCTTCCGATCTC
RNA: GUGUAGAUCUCGGUGGUCGCCGUAUCAUU
modifications: 5' amino modifier C6, mixed DNA/ribonucleotides; complement 3' C3 spacer
B2: binds [2].

B3: low-PCR adaptor primer duplex c5p(uni)/c5pt (DNA:RNA)
DNA: GTGACTGGAGTTCAGACGTGTGCTCTTCCGATCC
RNA: GAUCGGAAGAGCACACGUCUGAACUCCAGU
modifications: 3' C3 spacer on RNA strand
B3: binds [3].

Source: patent US20210261944, “Compositions and methods for ordered and continuous complementary DNA (cDNA) synthesis across non-continuous templates” (The Regents of the University of California, published 2021)
